Assay results published in patent US20160272683A1 (Novo Nordisk, published 2016).
Numbered stars: 1 amine (or outer) side, 2 acyl side, 3 side chain; on linkers, the order of the positions; unused ones are H or OH. * marks the point of attachment. C20 diacid = O=C(O)CCCCCCCCCCCCCCCCCCC(=O)*; γGlu = O=C(O)[C@H](CCC(=O)[*:2])N[*:1]; AEEA = NCCOCCOCC(=O)O

T1: human amylin 3(a) receptor (human calcitonin receptor co-expressed with RAMP-3) on BHK570/CRE-luc cells (human, UniProt P30988 25-474; O60896 24-148)
T1 sequence (looked up) 1: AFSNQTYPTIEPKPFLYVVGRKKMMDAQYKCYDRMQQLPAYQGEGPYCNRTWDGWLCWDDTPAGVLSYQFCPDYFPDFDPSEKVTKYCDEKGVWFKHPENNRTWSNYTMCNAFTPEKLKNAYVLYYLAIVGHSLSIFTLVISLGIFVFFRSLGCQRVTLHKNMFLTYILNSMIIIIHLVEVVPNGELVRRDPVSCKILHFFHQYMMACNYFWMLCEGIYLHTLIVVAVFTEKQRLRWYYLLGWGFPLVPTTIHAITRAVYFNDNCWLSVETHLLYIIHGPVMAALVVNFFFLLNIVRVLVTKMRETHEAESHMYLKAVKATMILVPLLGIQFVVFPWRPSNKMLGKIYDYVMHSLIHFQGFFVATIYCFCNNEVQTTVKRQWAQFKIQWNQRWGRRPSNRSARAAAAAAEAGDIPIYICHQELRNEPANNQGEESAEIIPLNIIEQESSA
T1 sequence (looked up) 2: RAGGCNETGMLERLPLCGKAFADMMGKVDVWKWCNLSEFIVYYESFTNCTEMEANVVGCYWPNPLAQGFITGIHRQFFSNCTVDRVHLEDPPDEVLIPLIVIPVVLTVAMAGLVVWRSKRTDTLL

T2: human calcitonin receptor on BHK570/CRE-luc cells (human, UniProt P30988 25-474)
T2 sequence (looked up): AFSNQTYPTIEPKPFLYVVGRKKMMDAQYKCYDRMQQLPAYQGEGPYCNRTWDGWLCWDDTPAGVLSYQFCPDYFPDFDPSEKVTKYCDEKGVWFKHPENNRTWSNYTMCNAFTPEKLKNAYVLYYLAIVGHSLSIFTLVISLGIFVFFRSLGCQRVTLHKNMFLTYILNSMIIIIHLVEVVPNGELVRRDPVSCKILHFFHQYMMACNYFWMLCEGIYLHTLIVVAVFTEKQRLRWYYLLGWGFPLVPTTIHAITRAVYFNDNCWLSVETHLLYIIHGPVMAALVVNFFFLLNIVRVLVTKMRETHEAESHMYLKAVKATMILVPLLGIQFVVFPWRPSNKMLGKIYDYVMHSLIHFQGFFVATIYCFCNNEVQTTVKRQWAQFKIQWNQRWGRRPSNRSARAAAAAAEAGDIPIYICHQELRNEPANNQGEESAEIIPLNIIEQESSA

B1: [N-terminal(C20 diacid-gGlu), des1, 4G, 9V, 15Q, 21Q, 23Y, 30S, 31Q, 32T, 33Y]mimylin (peptide)
peptide: {C20 diacid-γGlu}-ASGLSTAVLGRLSQELHELQTYPRTETGSQTY-NH2
SMILES: CC(C)C[C@H](NC(=O)CNC(=O)[C@H](CO)NC(=O)[C@H](C)NC(=O)CC[C@H](NC(=O)CCCCCCCCCCCCCCCCCCC(=O)O)C(=O)O)C(=O)N[C@@H](CO)C(=O)N[C@H](C(=O)N[C@@H](C)C(=O)N[C@H](C(=O)N[C@@H](CC(C)C)C(=O)NCC(=O)N[C@@H](CCCNC(=N)N)C(=O)N[C@@H](CC(C)C)C(=O)N[C@@H](CO)C(=O)N[C@@H](CCC(N)=O)C(=O)N[C@@H](CCC(=O)O)C(=O)N[C@@H](CC(C)C)C(=O)N[C@@H](Cc1c[nH]cn1)C(=O)N[C@@H](CCC(=O)O)C(=O)N[C@@H](CC(C)C)C(=O)N[C@@H](CCC(N)=O)C(=O)N[C@H](C(=O)N[C@@H](Cc1ccc(O)cc1)C(=O)N1CCC[C@H]1C(=O)N[C@@H](CCCNC(=N)N)C(=O)N[C@H](C(=O)N[C@@H](CCC(=O)O)C(=O)N[C@H](C(=O)NCC(=O)N[C@@H](CO)C(=O)N[C@@H](CCC(N)=O)C(=O)N[C@H](C(=O)N[C@@H](Cc1ccc(O)cc1)C(N)=O)[C@@H](C)O)[C@@H](C)O)[C@@H](C)O)[C@@H](C)O)C(C)C)[C@@H](C)O
B2: [N-terminal(C20 diacid-gGlu), des1, 9V, 15Q, 21Q, 23Y, 30S, 31G, 32T, 33Y]mimylin (peptide)
peptide: {C20 diacid-γGlu}-ASELSTAVLGRLSQELHELQTYPRTETGSGTY-NH2
SMILES: CC(C)C[C@H](NC(=O)[C@H](CCCNC(=N)N)NC(=O)CNC(=O)[C@H](CC(C)C)NC(=O)[C@@H](NC(=O)[C@H](C)NC(=O)[C@@H](NC(=O)[C@H](CO)NC(=O)[C@H](CC(C)C)NC(=O)[C@H](CCC(=O)O)NC(=O)[C@H](CO)NC(=O)[C@H](C)NC(=O)CC[C@H](NC(=O)CCCCCCCCCCCCCCCCCCC(=O)O)C(=O)O)[C@@H](C)O)C(C)C)C(=O)N[C@@H](CO)C(=O)N[C@@H](CCC(N)=O)C(=O)N[C@@H](CCC(=O)O)C(=O)N[C@@H](CC(C)C)C(=O)N[C@@H](Cc1c[nH]cn1)C(=O)N[C@@H](CCC(=O)O)C(=O)N[C@@H](CC(C)C)C(=O)N[C@@H](CCC(N)=O)C(=O)N[C@H](C(=O)N[C@@H](Cc1ccc(O)cc1)C(=O)N1CCC[C@H]1C(=O)N[C@@H](CCCNC(=N)N)C(=O)N[C@H](C(=O)N[C@@H](CCC(=O)O)C(=O)N[C@H](C(=O)NCC(=O)N[C@@H](CO)C(=O)NCC(=O)N[C@H](C(=O)N[C@@H](Cc1ccc(O)cc1)C(N)=O)[C@@H](C)O)[C@@H](C)O)[C@@H](C)O)[C@@H](C)O
B3: [N-terminal(C20 diacid-gGlu), des1, 4Q, 9V, 15Q, 21Q, 23Y, 30S, 31Q, 32T, 33Y]mimylin (peptide)
peptide: {C20 diacid-γGlu}-ASQLSTAVLGRLSQELHELQTYPRTETGSQTY-NH2
SMILES: CC(C)C[C@H](NC(=O)[C@H](CCCNC(=N)N)NC(=O)CNC(=O)[C@H](CC(C)C)NC(=O)[C@@H](NC(=O)[C@H](C)NC(=O)[C@@H](NC(=O)[C@H](CO)NC(=O)[C@H](CC(C)C)NC(=O)[C@H](CCC(N)=O)NC(=O)[C@H](CO)NC(=O)[C@H](C)NC(=O)CC[C@H](NC(=O)CCCCCCCCCCCCCCCCCCC(=O)O)C(=O)O)[C@@H](C)O)C(C)C)C(=O)N[C@@H](CO)C(=O)N[C@@H](CCC(N)=O)C(=O)N[C@@H](CCC(=O)O)C(=O)N[C@@H](CC(C)C)C(=O)N[C@@H](Cc1c[nH]cn1)C(=O)N[C@@H](CCC(=O)O)C(=O)N[C@@H](CC(C)C)C(=O)N[C@@H](CCC(N)=O)C(=O)N[C@H](C(=O)N[C@@H](Cc1ccc(O)cc1)C(=O)N1CCC[C@H]1C(=O)N[C@@H](CCCNC(=N)N)C(=O)N[C@H](C(=O)N[C@@H](CCC(=O)O)C(=O)N[C@H](C(=O)NCC(=O)N[C@@H](CO)C(=O)N[C@@H](CCC(N)=O)C(=O)N[C@H](C(=O)N[C@@H](Cc1ccc(O)cc1)C(N)=O)[C@@H](C)O)[C@@H](C)O)[C@@H](C)O)[C@@H](C)O
B4: [N-terminal(C20 diacid-gGlu-2xOEG), des1, 4G, 9V, 15Q, 21Q, 23Y, 30S, 31G, 32T, 33Y]mimylin (peptide)
peptide: {C20 diacid-γGlu-AEEA-AEEA}-ASGLSTAVLGRLSQELHELQTYPRTETGSGTY-NH2
SMILES: CC(C)C[C@H](NC(=O)CNC(=O)[C@H](CO)NC(=O)[C@H](C)NC(=O)COCCOCCNC(=O)COCCOCCNC(=O)CC[C@H](NC(=O)CCCCCCCCCCCCCCCCCCC(=O)O)C(=O)O)C(=O)N[C@@H](CO)C(=O)N[C@H](C(=O)N[C@@H](C)C(=O)N[C@H](C(=O)N[C@@H](CC(C)C)C(=O)NCC(=O)N[C@@H](CCCNC(=N)N)C(=O)N[C@@H](CC(C)C)C(=O)N[C@@H](CO)C(=O)N[C@@H](CCC(N)=O)C(=O)N[C@@H](CCC(=O)O)C(=O)N[C@@H](CC(C)C)C(=O)N[C@@H](Cc1c[nH]cn1)C(=O)N[C@@H](CCC(=O)O)C(=O)N[C@@H](CC(C)C)C(=O)N[C@@H](CCC(N)=O)C(=O)N[C@H](C(=O)N[C@@H](Cc1ccc(O)cc1)C(=O)N1CCC[C@H]1C(=O)N[C@@H](CCCNC(=N)N)C(=O)N[C@H](C(=O)N[C@@H](CCC(=O)O)C(=O)N[C@H](C(=O)NCC(=O)N[C@@H](CO)C(=O)NCC(=O)N[C@H](C(=O)N[C@@H](Cc1ccc(O)cc1)C(N)=O)[C@@H](C)O)[C@@H](C)O)[C@@H](C)O)[C@@H](C)O)C(C)C)[C@@H](C)O
B5: [N-terminal(C20 diacid-gGlu), 4Q, 9V, 15Q, 21Q, 23Y, 27G, 30S, 31G, 32T, 33Y]mimylin (peptide)
peptide: {C20 diacid-γGlu}-EASQLSTAVLGRLSQELHELQTYPRTGTGSGTY-NH2
SMILES: CC(C)C[C@H](NC(=O)[C@H](CCCNC(=N)N)NC(=O)CNC(=O)[C@H](CC(C)C)NC(=O)[C@@H](NC(=O)[C@H](C)NC(=O)[C@@H](NC(=O)[C@H](CO)NC(=O)[C@H](CC(C)C)NC(=O)[C@H](CCC(N)=O)NC(=O)[C@H](CO)NC(=O)[C@H](C)NC(=O)[C@H](CCC(=O)O)NC(=O)CC[C@H](NC(=O)CCCCCCCCCCCCCCCCCCC(=O)O)C(=O)O)[C@@H](C)O)C(C)C)C(=O)N[C@@H](CO)C(=O)N[C@@H](CCC(N)=O)C(=O)N[C@@H](CCC(=O)O)C(=O)N[C@@H](CC(C)C)C(=O)N[C@@H](Cc1c[nH]cn1)C(=O)N[C@@H](CCC(=O)O)C(=O)N[C@@H](CC(C)C)C(=O)N[C@@H](CCC(N)=O)C(=O)N[C@H](C(=O)N[C@@H](Cc1ccc(O)cc1)C(=O)N1CCC[C@H]1C(=O)N[C@@H](CCCNC(=N)N)C(=O)N[C@H](C(=O)NCC(=O)N[C@H](C(=O)NCC(=O)N[C@@H](CO)C(=O)NCC(=O)N[C@H](C(=O)N[C@@H](Cc1ccc(O)cc1)C(N)=O)[C@@H](C)O)[C@@H](C)O)[C@@H](C)O)[C@@H](C)O
B6: [N-terminal(C20 diacid-gGlu), des1, 4G, 15Q, 21Q, 23Y, 25H, 30S, 31G, 32T, 33Y]mimylin (peptide)
peptide: {C20 diacid-γGlu}-ASGLSTAALGRLSQELHELQTYPHTETGSGTY-NH2
SMILES: CC(C)C[C@H](NC(=O)CNC(=O)[C@H](CO)NC(=O)[C@H](C)NC(=O)CC[C@H](NC(=O)CCCCCCCCCCCCCCCCCCC(=O)O)C(=O)O)C(=O)N[C@@H](CO)C(=O)N[C@H](C(=O)N[C@@H](C)C(=O)N[C@@H](C)C(=O)N[C@@H](CC(C)C)C(=O)NCC(=O)N[C@@H](CCCNC(=N)N)C(=O)N[C@@H](CC(C)C)C(=O)N[C@@H](CO)C(=O)N[C@@H](CCC(N)=O)C(=O)N[C@@H](CCC(=O)O)C(=O)N[C@@H](CC(C)C)C(=O)N[C@@H](Cc1c[nH]cn1)C(=O)N[C@@H](CCC(=O)O)C(=O)N[C@@H](CC(C)C)C(=O)N[C@@H](CCC(N)=O)C(=O)N[C@H](C(=O)N[C@@H](Cc1ccc(O)cc1)C(=O)N1CCC[C@H]1C(=O)N[C@@H](Cc1c[nH]cn1)C(=O)N[C@H](C(=O)N[C@@H](CCC(=O)O)C(=O)N[C@H](C(=O)NCC(=O)N[C@@H](CO)C(=O)NCC(=O)N[C@H](C(=O)N[C@@H](Cc1ccc(O)cc1)C(N)=O)[C@@H](C)O)[C@@H](C)O)[C@@H](C)O)[C@@H](C)O)[C@@H](C)O
B7: [N-terminal(C20 diacid-gGlu), des1, 4G, 9V, 15Q, 21Q, 23Y, 30S, 31G, 32T, 33Y]mimylin (peptide)
peptide: {C20 diacid-γGlu}-ASGLSTAVLGRLSQELHELQTYPRTETGSGTY-NH2
SMILES: CC(C)C[C@H](NC(=O)CNC(=O)[C@H](CO)NC(=O)[C@H](C)NC(=O)CC[C@H](NC(=O)CCCCCCCCCCCCCCCCCCC(=O)O)C(=O)O)C(=O)N[C@@H](CO)C(=O)N[C@H](C(=O)N[C@@H](C)C(=O)N[C@H](C(=O)N[C@@H](CC(C)C)C(=O)NCC(=O)N[C@@H](CCCNC(=N)N)C(=O)N[C@@H](CC(C)C)C(=O)N[C@@H](CO)C(=O)N[C@@H](CCC(N)=O)C(=O)N[C@@H](CCC(=O)O)C(=O)N[C@@H](CC(C)C)C(=O)N[C@@H](Cc1c[nH]cn1)C(=O)N[C@@H](CCC(=O)O)C(=O)N[C@@H](CC(C)C)C(=O)N[C@@H](CCC(N)=O)C(=O)N[C@H](C(=O)N[C@@H](Cc1ccc(O)cc1)C(=O)N1CCC[C@H]1C(=O)N[C@@H](CCCNC(=N)N)C(=O)N[C@H](C(=O)N[C@@H](CCC(=O)O)C(=O)N[C@H](C(=O)NCC(=O)N[C@@H](CO)C(=O)NCC(=O)N[C@H](C(=O)N[C@@H](Cc1ccc(O)cc1)C(N)=O)[C@@H](C)O)[C@@H](C)O)[C@@H](C)O)[C@@H](C)O)C(C)C)[C@@H](C)O

Legend:
[1] = molecular target: T1, human amylin 3(a) receptor (human …); test: cell-based or functional assay
[2] = molecular target: T2, human calcitonin receptor on …; test: cell-based or functional assay

Binder	hAmylin-R funct. EC50 (pM), tested with HSA [1] [pM]	hCTR funct. EC50 (pM), tested with HSA [2] [pM]
B1	86	61
B2	142	97
B3	67	36
B4	123	68
B5	546	366
B6	212	99
B7	105	54
